# Source: US9617572B2, “Methods of producing 7-carbon chemicals via aromatic compounds” (INVISTA North America S.á r.l., priority 2012, dated 2017)
# B1: SEQ ID NO 4: Segniliparus rugosus carboxylate reductase, Genbank Accession No. EFV11917.1 (protein, listed as Segniliparus rugosus)
# chain: MGDGEERAKRFFQRIGELSATDPQFAAAAPDPAVVEAVSDPSLSFTRYLDTLMRGYAERPALAHRVGAGYETISYGELWARVGAIAAAWQADGLAPGDFVATVGFTSPDYVAVDLAAARSGLVSVPLQAGASLAQLVGILEETEPKVLAASASSLEGAVACALAAPSVQRLVVFDLRGPDASESAADERRGALADAEEQLARAGRAVVVETLADLAARGEALPEAPLFEPAEGEDPLALLIYTSGSTGAPKGAMYSQRLVSQLWGRTPVVPGMPNISLHYMPLSHSYGRAVLAGALSAGGTAHFTANSDLSTLFEDIALARPTFLALVPRVCEMLFQESQRGQDVAELRERVLGGRLLVAVCGSAPLSPEMRAFMEEVLGFPLLDGYGSTEALGVMRNGIIQRPPVIDYKLVDVPELGYRTTDKPYPRGELCIRSTSLISGYYKRPEITAEVFDAQGYYKTGDVMAEIAPDHLVYVDRSKNVLKLSQGEFVAVAKLEAAYGTSPYVKQIFVYGNSERSFLLAVVVPNAEVLGARDQEEAKPLIAASLQKIAKEAGLQSYEVPRDFLIETEPFTTQNGLLSEVGKLLRPKLKARYGEALEARYDEIAHGQADELRALRDGAGQRPVVETVVRAAVAISGSEGAEVGPEANFADLGGDSLSALSLANLLHDVFEVEVPVRIIIGPTASLAGIAKHIEAERAGASAPTAASVHGAGATRIRASELTLEKFLPEDLLAAAKGLPAADQVRTVLLTGANGWLGRFLALEQLERLARSGQDGGKLICLVRGKDAAAARRRIEETLGTDPALAARFAELAEGRLEVVPGDVGEPKFGLDDAAWDRLAEEVDVIVHPAALVNHVLPYHQLFGPNVVGTAEIIRLAITAKRKPVTYLSTVAVAAGVEPSSFEEDGDIRAVVPERPLGDGYANGYGNSKWAGEVLLREAHELVGLPVAVFRSDMILAHTRYTGQLNVPDQFTRLVLSLLATGIAPKSFYQQGAAGERQRAHYDGIPVDFTAEAITTLGAEPSWFDGGAGFRSFDVFNPHHDGVGLDEFVDWLIEAGHPISRIDDHKEWFARFETAVRGLPEAQRQHSLLPLLRAYSFPHPPVDGSVYPTGKFQGAVKAAQVGSDHDVPHLGKALIVKYADDLKALGLL
# B2: SEQ ID NO 6: Mycobacterium massiliense carboxylate reductase, Genbank Accession No. EIV11143.1 (protein)
# chain: MTNETNPQQEQLSRRIESLRESDPQFRAAQPDPAVAEQVLRPGLHLSEAIAALMTGYAERPALGERARELVIDQDGRTTLRLLPRFDTTTYGELWSRTTSVAAAWHHDATHPVKAGDLVATLGFTSIDYTVLDLAIMILGGVAVPLQTSAPASQWTTILAEAEPNTLAVSIELIGAAMESVRATPSIKQVVVFDYTPEVDDQREAFEAASTQLAGTGIALETLDAVIARGAALPAAPLYAPSAGDDPLALLIYTSGSTGAPKGAMHSENIVRRWWIREDVMAGTENLPMIGLNFMPMSHIMGRGTLTSTLSTGGTGYFAASSDMSTLFEDMELIRPTALALVPRVCDMVFQRFQTEVDRRLASGDTASAEAVAAEVKADIRDNLFGGRVSAVMVGSAPLSEELGEFIESCFELNLTDGYGSTEAGMVFRDGIVQRPPVIDYKLVDVPELGYFSTDKPHPRGELLLKTDGMFLGYYKRPEVTASVFDADGFYMTGDIVAELAHDNIEIIDRRNNVLKLSQGEFVAVATLEAEYANSPVVHQIYVYGSSERSYLLAVVVPTPEAVAAAKGDAAALKTTIADSLQDIAKEIQLQSYEVPRDFIIEPQPFTQGNGLLTGIAKLARPNLKAHYGPRLEQMYAEIAEQQAAELRALHGVDPDKPALETVLKAAQALLGVSSAELAADAHFTDLGGDSLSALSFSDLLRDIFAVEVPVGVIVSAANDLGGVAKFVDEQRHSGGTRPTAETVHGAGHTEIRAADLTLDKFIDEATLHAAPSLPKAAGIPHTVLLTGSNGYLGHYLALEWLERLDKTDGKLIVIVRGKNAEAAYGRLEEAFDTGDTELLAHFRSLADKHLEVLAGDIGDPNLGLDADTWQRLADTVDVIVHPAALVNHVLPYNQLFGPNVVGTAEIIKLAITTKIKPVTYLSTVAVAAYVDPTTFDEESDIRLISAVRPIDDGYANGYGNAKWAGEVLLREAHDLCGLPVAVFRSDMILAHSRYTGQLNVPDQFTRLILSLIATGIAPGSFYQAQTTGERPLAHYDGLPGDFTAEAITTLGTQVPEGSEGFVTYDCVNPHADGISLDNFVDWLIEAGYPIARIDNYTEWFTRFDTAIRGLSEKQKQHSLLPLLHAFEQPSAAENHGVVPAKRFQHAVQAAGIGPVGQDGTTDIPHLSRRLIVKYAKDLEQLGLL
# modifications: Mycobacterium massiliense
# B3: tesB: Escherichia coli thioesterase encoded by tesB, GenBank Accession No. AAA24665.1 (protein, listed as Escherichia coli)
# chain: MSQALKNLLTLLNLEKIEEGLFRGQSEDLGLRQVFGGQVVGQALYAAKETVPEERLVHSFHSYFLRPGDSKKPIIYDVETLRDGNSFSARRVAAIQNGKPIFYMTASFQAPEAGFEHQKTMPSAPAPDGLPSETQIAQSLAHLLPPVLKDKFICDRPLEVRPVEFHNPLKGHVAEPHRQVWIRANGSVPDDLRVHQYLLGYASDLNFLPVALQPHGIGFLEPGIQIATIDHSMWFHRPFNLNEWLLYSVESTSASSARGFVRGEFYTQDGVLVASTVQEGVMRNHN
# How the values were obtained:
# Format in all cases: biochemical
# [1] = Carboxylate reductase activity assay (pimelate to pimelate semialdehyde); conditions: purified enzyme enhanced by sfp gene product, 2 mM pimelate, 1 mM ATP, 1 mM NADPH, pH 7.5, room temperature, 20 min, against empty vector control
# Description: A sequence encoding a HIS-tag was added to the genes from Segniliparus rugosus and Segniliparus rotundus that encode the carboxylate reductases of SEQ ID NOs: 4 and 7, respectively (see FIGS. 7C and 7F), such that N-terminal HIS tagged carboxylate reductases could be produced. Each of the modified genes was cloned into a pET Duet expression vector along with a sfp gene encoding a HIS-tagged phosphopantetheine transferase from Bacillus subtilis, both under the T7 promoter. Each expression vector was transformed into a BL21[DE3] E. coli host and the resulting recombinant E. coli strains were cultivated at 37° C. in a 250 mL shake flask culture containing 50 mL LB media and antibiotic selection pressure, with shaking at 230 rpm. Each culture was induced overnight at 37° C. using an auto-induction media.
# The pellet from each induced shake flask culture was harvested via centrifugation. Each pellet was resuspended and lysed via sonication, and the cell debris was separated from the supernatant via centrifugation. […]
# Enzyme activity assays (i.e., from pimelate to pimelate semialdehyde) were performed in triplicate in a buffer composed of a final concentration of 50 mM HEPES buffer (pH=7.5), 2 mM pimelate, 10 mM MgCl2, 1 mM ATP and 1 mM NADPH. […] The consumption of NADPH was monitored by absorbance at 340 nm.
# [2] = Carboxylate reductase activity assay (N7-acetyl-7-aminoheptanoate to N7-acetyl-7-aminoheptanal); conditions: purified enzyme enhanced by sfp gene product, 2 mM N7-acetyl-7-aminoheptanoate, 1 mM ATP, 1 mM NADPH, pH 7.5, room temperature, 20 min, against empty vector control
# Description: The activity of each of the N-terminal His-tagged carboxylate reductases of SEQ ID NOs: 3, 6, and 7 (see Example 4, and FIGS. 7B, 7E, and 7F) for converting N7-acetyl-7-aminoheptanoate to N7-acetyl-7-aminoheptanal was assayed in triplicate in a buffer composed of a final concentration of 50 mM HEPES buffer (pH=7.5), 2 mM N7-acetyl-7-aminoheptanoate, 10 mM MgCl2, 1 mM ATP, and 1 mM NADPH. The assays were initiated by adding purified carboxylate reductase and phosphopantetheine transferase or the empty vector control to the assay buffer containing the N7-acetyl-7-aminoheptanoate then incubated at room temperature for 20 min. The consumption of NADPH was monitored by absorbance at 340 nm.
# [3] = Thioesterase enzyme activity assay using pimeloyl-CoA as substrate, forming pimelate; conditions: 667 μM pimeloyl-CoA, 0.8 μM tesB gene product, pH 7.4, 37° C., 20 min, compared to empty vector control
# Description: A sequence encoding an N-terminal His tag was added to the tesB gene from Escherichia coli that encodes a thioesterase (SEQ ID NO 1, see FIG. 7A), such that an N-terminal HIS tagged thioesterase could be produced. The modified tesB gene was cloned into a pET15b expression vector under control of the T7 promoter. The expression vector was transformed into a BL21[DE3] E. coli host. The resulting recombinant E. coli strain was cultivated at 37° C. in a 500 mL shake flask culture containing 50 mL Luria Broth (LB) media and antibiotic selection pressure, with shaking at 230 rpm. The culture was induced overnight at 17° C. using 0.5 mM IPTG.
# The pellet from the induced shake flask culture was harvested via centrifugation. The pellet was resuspended and lysed in Y-per™ solution (ThermoScientific, Rockford, Ill.). The cell debris was separated from the supernatant via centrifugation. […]
# The enzyme activity assay was performed in triplicate in a buffer composed of 50 mM phosphate buffer (pH=7.4), 0.1 mM Ellman's reagent, and 667 μM of pimeloyl-CoA (as substrate). […] The release of Coenzyme A was monitored by absorbance at 412 nm. The absorbance associated with the substrate only control, which contained boiled enzyme, was subtracted from the active enzyme assay absorbance and compared to the empty vector control.
molecule,measurement,setting,value
B1,"acceptance of pimelate as substrate (consumption of NADPH, absorbance at 340 nm)",[1],accepted pimelate as substrate
B2,"acceptance of N7-acetyl-7-aminoheptanoate as substrate (consumption of NADPH, absorbance at 340 nm)",[2],accepted N7-acetyl-7-aminoheptanoate as substrate
B3,"acceptance of pimeloyl-CoA as substrate (release of Coenzyme A, absorbance at 412 nm)",[3],acceped pimeloyl-CoA as substrate
